# Data from publication PMC4039082 (Science (New York, N.Y.), 2013).
# T1: Tfa1 subunit of TFIIE (S. cerevisiae, UniProt P36100 1-482)
# T1 sequence (looked up): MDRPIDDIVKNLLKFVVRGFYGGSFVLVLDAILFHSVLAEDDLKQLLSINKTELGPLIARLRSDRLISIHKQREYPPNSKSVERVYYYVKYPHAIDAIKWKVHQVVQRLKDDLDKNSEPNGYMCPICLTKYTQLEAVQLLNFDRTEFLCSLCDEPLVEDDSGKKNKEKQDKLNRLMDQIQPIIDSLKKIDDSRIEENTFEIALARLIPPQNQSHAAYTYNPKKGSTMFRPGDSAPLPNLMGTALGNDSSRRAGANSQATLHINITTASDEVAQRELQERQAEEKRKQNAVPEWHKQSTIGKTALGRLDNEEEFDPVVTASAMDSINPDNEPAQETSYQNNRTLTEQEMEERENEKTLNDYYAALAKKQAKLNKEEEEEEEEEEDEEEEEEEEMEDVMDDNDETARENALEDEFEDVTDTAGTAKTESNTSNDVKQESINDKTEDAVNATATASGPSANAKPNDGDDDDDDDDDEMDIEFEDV
# B1: Toa2 subunit of TFIIA (natural protein, S. cerevisiae, UniProt P32774 1-122, looked up)
# chain: MAVPGYYELYRRSTIGNSLVDALDTLISDGRIEASLAMRVLETFDKVVAETLKDNTQSKLTVKGNLDTYGFCDDVWTFIVKNCQVTVEDSHRDASQNGSGDSQSVISVDKLRIVACNSKKSE
# B2: Tfg2 subunit of TFIIF (natural protein, S. cerevisiae, UniProt P41896 1-400, looked up)
# chain: MSSGSAGAPALSNNSTNSVAKEKSGNISGDEYLSQEEEVFDGNDIENNETKVYEESLDLDLERSNRQVWLVRLPMFLAEKWRDRNNLHGQELGKIRINKDGSKITLLLNENDNDSIPHEYDLELTKKVVENEYVFTEQNLKKYQQRKKELEADPEKQRQAYLKKQEREEELKKKQQQQKRRNNRKKFNHRVMTDRDGRDRYIPYVKTIPKKTAIVGTVCHECQVMPSMNDPNYHKIVEQRRNIVKLNNKERITTLDETVGVTMSHTGMSMRSDNSNFLKVGREKAKSNIKSIRMPKKEILDYLFKLFDEYDYWSLKGLKERTRQPEAHLKECLDKVATLVKKGPYAFKYTLRPEYKKLKEEERKATLGELADEQTGSAGDNAQGDAEADLEDEIEMEDVV
# B3: TFIIB (natural protein, S. cerevisiae, UniProt P29055 1-345, looked up)
# chain: MMTRESIDKRAGRRGPNLNIVLTCPECKVYPPKIVERFSEGDVVCALCGLVLSDKLVDTRSEWRTFSNDDHNGDDPSRVGEASNPLLDGNNLSTRIGKGETTDMRFTKELNKAQGKNVMDKKDNEVQAAFAKITMLCDAAELPKIVKDCAKEAYKLCHDEKTLKGKSMESIMAASILIGCRRAEVARTFKEIQSLIHVKTKEFGKTLNIMKNILRGKSEDGFLKIDTDNMSGAQNLTYIPRFCSHLGLPMQVTTSAEYTAKKCKEIKEIAGKSPITIAVVSIYLNILLFQIPITAAKVGQTLQVTEGTIKSGYKILYEHRDKLVDPQLIANGVVSLDNLPGVEKK
# B4: Tfa2 subunit of TFIIE (natural protein, S. cerevisiae, UniProt P36145 1-328, looked up)
# chain: MSKNRDPLLANLNAFKSKVKSAPVIAPAKVGQKKTNDTVITIDGNTRKRTASERAQENTLNSAKNPVLVDIKKEAGSNSSNAISLDDDDDDEDFGSSPSKKVRPGSIAAAALQANQTDISKSHDSSKLLWATEYIQKKGKPVLVNELLDYLSMKKDDKVIELLKKLDRIEFDPKKGTFKYLSTYDVHSPSELLKLLRSQVTFKGISCKDLKDGWPQCDETINQLEEDSKILVLRTKKDKTPRYVWYNSGGNLKCIDEEFVKMWENVQLPQFAELPRKLQDLGLKPASVDPATIKRQTKRVEVKKKRQRKGKITNTHMTGILKDYSHRV
# B5: Ssl1 subunit of core TFIIH (natural protein, S. cerevisiae, UniProt Q04673 1-461, looked up)
# chain: MAPVVISESEEDEDRVAITRRTKRQVHFDGEGDDRVDQQQQQHSSSHRDRDKHVQRKKKKRLSNRNLQGSNGGYAWEDEIKRSWDLVKVDDEGDMASLVASIVEARKKRTAKKNITPYQRGIIRSLILTLDCSEAMLEKDLRPNRHAMIIQYAIDFVHEFFDQNPISQMGIIIMRNGLAQLVSQVSGNPQDHIDALKSIRKQEPKGNPSLQNALEMARGLLLPVPAHCTREVLIVFGSLSTTDPGDIHQTIDSLVSEKIRVKVLGLSAQVAICKELCKATNYGDESFYKILLDETHLKELFNEAVTPLPVNKINKGFTLVKMGFPTRIFEDTPTFCSCHSKLVYGGYFCPNCHSKVCSLPTVCPCCDLMLILSTHLARSYHHLMPLKTFAEVPTTEKFRSEDCFSCQSRFPILKNHKNGKLLTSSRYRCEDCKQEFCVDCDVFIHEILHNCPGCESKPVIT
# B6: Tfg1 subunit of TFIIF (natural protein, S. cerevisiae, UniProt P41895 1-735, looked up)
# chain: MSRRNPPGSRNGGGPTNASPFIKRDRMRRNFLRMRMGQNGSNSSSPGVPNGDNSRGSLVKKDDPEYAEEREKMLLQIGVEADAGRSNVKVKDEDPNEYNEFPLRAIPKEDLENMRTHLLKFQSKKKINPVTDFHLPVRLHRKDTRNLQFQLTRAEIVQRQKEISEYKKKAEQERSTPNSGGMNKSGTVSLNNTVKDGSQTPTVDSVTKDNTANGVNSSIPTVTGSSVPPASPTTVSAVESNGLSNGSTSAANGLDGNASTANLANGRPLVTKLEDAGPAEDPTKVGMVKYDGKEVTNEPEFEEGTMDPLADVAPDGGGRAKRGNLRRKTRQLKVLDENAKKLRFEEFYPWVMEDFDGYNTWVGSYEAGNSDSYVLLSVEDDGSFTMIPADKVYKFTARNKYATLTIDEAEKRMDKKSGEVPRWLMKHLDNIGTTTTRYDRTRRKLKAVADQQAMDEDDRDDNSEVELDYDEEFADDEEAPIIDGNEQENKESEQRIKKEMLQANAMGLRDEEAPSENEEDELFGEKKIDEDGERIKKALQKTELAALYSSDENEINPYLSESDIENKENESPVKKEEDSDTLSKSKRSSPKKQQKKATNAHVHKEPTLRVKSIKNCVIILKGDKKILKSFPEGEWNPQTTKAVDSSNNASNTVPSPIKQEEGLNSTVAEREETPAPTITEKDIIEAIGDGKVNIKEFGKFIRRKYPGAENKKLMFAIVKKLCRKVGNDHMELKKE
# B7: Ssl2 helicase subunit of TFIIH (natural protein, S. cerevisiae, UniProt Q00578 1-843, looked up)
# chain: MTDVEGYQPKSKGKIFPDMGESFFSSDEDSPATDAEIDENYDDNRETSEGRGERDTGAMVTGLKKPRKKTKSSRHTAADSSMNQMDAKDKALLQDTNSDIPADFVPDSVSGMFRSHDFSYLRLRPDHASRPLWISPSDGRIILESFSPLAEQAQDFLVTIAEPISRPSHIHEYKITAYSLYAAVSVGLETDDIISVLDRLSKVPVAESIINFIKGATISYGKVKLVIKHNRYFVETTQADILQMLLNDSVIGPLRIDSDHQVQPPEDVLQQQLQQTAGKPATNVNPNDVEAVFSAVIGGDNEREEEDDDIDAVHSFEIANESVEVVKKRCQEIDYPVLEEYDFRNDHRNPDLDIDLKPSTQIRPYQEKSLSKMFGNGRARSGIIVLPCGAGKTLVGITAACTIKKSVIVLCTSSVSVMQWRQQFLQWCTLQPENCAVFTSDNKEMFQTESGLVVSTYSMVANTRNRSHDSQKVMDFLTGREWGFIILDEVHVVPAAMFRRVVSTIAAHAKLGLTATLVREDDKIGDLNFLIGPKLYEANWMELSQKGHIANVQCAEVWCPMTAEFYQEYLRETARKRMLLYIMNPTKFQACQFLIQYHERRGDKIIVFSDNVYALQEYALKMGKPFIYGSTPQQERMNILQNFQYNDQINTIFLSKVGDTSIDLPEATCLIQISSHYGSRRQEAQRLGRILRAKRRNDEGFNAFFYSLVSKDTQEMYYSTKRQAFLVDQGYAFKVITHLHGMENIPNLAYASPRERRELLQEVLLKNEEAAGIEVGDDADNSVGRGSNGHKRFKSKAVRGEGSLSGLAGGEDMAYMEYSTNKNKELKEHHPLIRKMYYKNLKK
# Assays:
# Assay in all cases: cross-linking
# Tfg2 subunit of TFIIF = molecular target: B2
# Rpb2 subunit of pol II = Rpb2 subunit of pol II (S. cerevisiae, UniProt P08518 1-1224)
# Chain of Rpb2 subunit of pol II (P08518 whole entry): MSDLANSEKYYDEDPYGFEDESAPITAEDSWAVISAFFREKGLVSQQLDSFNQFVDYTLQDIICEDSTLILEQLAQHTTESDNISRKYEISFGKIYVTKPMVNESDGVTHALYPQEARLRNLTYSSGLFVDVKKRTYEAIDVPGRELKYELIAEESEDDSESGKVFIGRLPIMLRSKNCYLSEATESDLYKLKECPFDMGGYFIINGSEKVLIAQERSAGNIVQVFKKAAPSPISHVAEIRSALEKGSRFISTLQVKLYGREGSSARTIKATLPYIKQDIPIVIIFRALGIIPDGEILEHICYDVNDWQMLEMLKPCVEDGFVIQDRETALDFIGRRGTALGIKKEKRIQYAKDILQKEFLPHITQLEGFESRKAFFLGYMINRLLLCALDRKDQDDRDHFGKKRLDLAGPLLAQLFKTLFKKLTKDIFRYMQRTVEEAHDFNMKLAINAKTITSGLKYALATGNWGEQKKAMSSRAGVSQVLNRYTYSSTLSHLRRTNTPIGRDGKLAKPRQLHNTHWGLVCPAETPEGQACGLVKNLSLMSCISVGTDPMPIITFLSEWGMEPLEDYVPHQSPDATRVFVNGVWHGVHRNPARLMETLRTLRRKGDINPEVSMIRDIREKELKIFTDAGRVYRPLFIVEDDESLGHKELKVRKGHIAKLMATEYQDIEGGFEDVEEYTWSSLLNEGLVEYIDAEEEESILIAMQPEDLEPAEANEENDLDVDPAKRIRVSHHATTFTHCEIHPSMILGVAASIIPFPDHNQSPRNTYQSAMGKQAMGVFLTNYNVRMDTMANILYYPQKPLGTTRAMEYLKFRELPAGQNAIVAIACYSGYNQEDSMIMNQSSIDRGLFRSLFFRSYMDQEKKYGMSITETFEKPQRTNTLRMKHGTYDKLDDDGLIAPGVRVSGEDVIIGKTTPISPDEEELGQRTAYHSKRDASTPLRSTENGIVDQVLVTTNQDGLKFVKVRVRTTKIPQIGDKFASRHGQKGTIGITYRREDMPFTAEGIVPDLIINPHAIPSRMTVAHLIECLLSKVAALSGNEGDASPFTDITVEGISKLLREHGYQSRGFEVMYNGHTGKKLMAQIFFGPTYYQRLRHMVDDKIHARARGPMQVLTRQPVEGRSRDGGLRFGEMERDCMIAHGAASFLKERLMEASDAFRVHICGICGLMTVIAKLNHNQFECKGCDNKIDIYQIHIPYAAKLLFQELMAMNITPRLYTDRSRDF
# [1] = molecular target: B7
# Tfa1 subunit of TFIIE = molecular target: T1, Tfa1 subunit of TFIIE
# [2] = molecular target: Rpb1 subunit of RNA polymerase II (S. cerevisiae, UniProt P04050 1-1733)
# Chain of Rpb1 subunit of RNA polymerase II (P04050 whole entry): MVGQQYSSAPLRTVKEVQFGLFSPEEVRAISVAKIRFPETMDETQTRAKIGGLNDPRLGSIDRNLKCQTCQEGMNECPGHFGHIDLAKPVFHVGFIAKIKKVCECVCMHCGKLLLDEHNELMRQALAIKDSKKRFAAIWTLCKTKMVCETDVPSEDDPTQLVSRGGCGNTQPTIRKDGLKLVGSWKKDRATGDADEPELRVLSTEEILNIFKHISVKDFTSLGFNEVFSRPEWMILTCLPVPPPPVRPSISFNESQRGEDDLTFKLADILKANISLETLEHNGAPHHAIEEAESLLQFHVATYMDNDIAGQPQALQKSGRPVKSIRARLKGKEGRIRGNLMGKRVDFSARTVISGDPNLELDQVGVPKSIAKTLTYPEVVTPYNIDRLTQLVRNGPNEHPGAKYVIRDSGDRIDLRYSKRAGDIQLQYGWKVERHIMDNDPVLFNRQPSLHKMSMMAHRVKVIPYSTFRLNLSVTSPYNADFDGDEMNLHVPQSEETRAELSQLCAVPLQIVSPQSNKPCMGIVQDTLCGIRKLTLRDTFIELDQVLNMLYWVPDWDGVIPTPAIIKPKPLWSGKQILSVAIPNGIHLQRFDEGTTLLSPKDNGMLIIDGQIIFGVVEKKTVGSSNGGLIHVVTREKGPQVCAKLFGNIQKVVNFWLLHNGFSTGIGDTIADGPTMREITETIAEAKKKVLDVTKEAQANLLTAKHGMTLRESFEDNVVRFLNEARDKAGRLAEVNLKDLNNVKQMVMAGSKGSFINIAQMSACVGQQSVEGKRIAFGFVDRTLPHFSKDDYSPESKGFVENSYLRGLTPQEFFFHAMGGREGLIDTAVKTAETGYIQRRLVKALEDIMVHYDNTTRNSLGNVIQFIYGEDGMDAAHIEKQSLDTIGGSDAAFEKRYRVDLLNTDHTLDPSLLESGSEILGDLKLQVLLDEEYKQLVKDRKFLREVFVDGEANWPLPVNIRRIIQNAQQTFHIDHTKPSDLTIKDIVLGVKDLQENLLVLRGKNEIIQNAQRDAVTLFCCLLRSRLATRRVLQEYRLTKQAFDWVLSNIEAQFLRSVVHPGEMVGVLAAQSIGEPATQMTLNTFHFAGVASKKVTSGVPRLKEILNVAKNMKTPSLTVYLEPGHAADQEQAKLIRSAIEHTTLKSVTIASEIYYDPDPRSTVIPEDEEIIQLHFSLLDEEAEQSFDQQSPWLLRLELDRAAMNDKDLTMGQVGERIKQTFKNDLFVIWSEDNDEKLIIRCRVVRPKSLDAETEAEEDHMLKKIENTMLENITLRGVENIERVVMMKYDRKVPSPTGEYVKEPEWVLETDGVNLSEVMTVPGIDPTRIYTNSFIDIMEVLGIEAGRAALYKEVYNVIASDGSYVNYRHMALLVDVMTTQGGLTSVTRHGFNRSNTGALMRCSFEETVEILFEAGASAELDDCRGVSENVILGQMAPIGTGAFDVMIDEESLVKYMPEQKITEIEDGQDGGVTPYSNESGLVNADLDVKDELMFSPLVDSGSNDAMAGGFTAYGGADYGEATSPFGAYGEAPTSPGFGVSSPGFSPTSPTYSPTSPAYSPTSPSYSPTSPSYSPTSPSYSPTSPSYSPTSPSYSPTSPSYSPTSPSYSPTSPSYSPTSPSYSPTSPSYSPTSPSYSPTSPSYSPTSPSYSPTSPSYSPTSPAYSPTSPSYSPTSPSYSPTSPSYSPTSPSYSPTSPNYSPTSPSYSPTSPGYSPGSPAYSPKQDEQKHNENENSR
binder,measurement,setting,value
B1,binding result,Tfg2 subunit of TFIIF,binds
B2,binding result,Rpb2 subunit of pol II,binds
same,binding result,[1],binds
B3,binding result,Tfg2 subunit of TFIIF,binds
B4,binding result,Tfa1 subunit of TFIIE,binds
same,binding result,Tfg2 subunit of TFIIF,binds
B5,binding result,Tfa1 subunit of TFIIE,binds
B6,binding result,Rpb2 subunit of pol II,binds
B7,binding result,[2],binds
